Test [1] addresses SARS-CoV-2 spike, Omicron BA.1 variant, on virus (SARS-CoV-2). Put plainly: cell-based or functional assay.
Test [2] addresses T1, SARS-CoV-2 spike, Delta variant (B.1.617.2), on virus or pseudotyped particles (SARS-CoV-2). Put plainly: cell-based or functional assay.
The target of test [3] is T2, CoV-OC43 Spike ectodomain (OC43-CoV, UniProt P36334 14-1263).
T2 chain: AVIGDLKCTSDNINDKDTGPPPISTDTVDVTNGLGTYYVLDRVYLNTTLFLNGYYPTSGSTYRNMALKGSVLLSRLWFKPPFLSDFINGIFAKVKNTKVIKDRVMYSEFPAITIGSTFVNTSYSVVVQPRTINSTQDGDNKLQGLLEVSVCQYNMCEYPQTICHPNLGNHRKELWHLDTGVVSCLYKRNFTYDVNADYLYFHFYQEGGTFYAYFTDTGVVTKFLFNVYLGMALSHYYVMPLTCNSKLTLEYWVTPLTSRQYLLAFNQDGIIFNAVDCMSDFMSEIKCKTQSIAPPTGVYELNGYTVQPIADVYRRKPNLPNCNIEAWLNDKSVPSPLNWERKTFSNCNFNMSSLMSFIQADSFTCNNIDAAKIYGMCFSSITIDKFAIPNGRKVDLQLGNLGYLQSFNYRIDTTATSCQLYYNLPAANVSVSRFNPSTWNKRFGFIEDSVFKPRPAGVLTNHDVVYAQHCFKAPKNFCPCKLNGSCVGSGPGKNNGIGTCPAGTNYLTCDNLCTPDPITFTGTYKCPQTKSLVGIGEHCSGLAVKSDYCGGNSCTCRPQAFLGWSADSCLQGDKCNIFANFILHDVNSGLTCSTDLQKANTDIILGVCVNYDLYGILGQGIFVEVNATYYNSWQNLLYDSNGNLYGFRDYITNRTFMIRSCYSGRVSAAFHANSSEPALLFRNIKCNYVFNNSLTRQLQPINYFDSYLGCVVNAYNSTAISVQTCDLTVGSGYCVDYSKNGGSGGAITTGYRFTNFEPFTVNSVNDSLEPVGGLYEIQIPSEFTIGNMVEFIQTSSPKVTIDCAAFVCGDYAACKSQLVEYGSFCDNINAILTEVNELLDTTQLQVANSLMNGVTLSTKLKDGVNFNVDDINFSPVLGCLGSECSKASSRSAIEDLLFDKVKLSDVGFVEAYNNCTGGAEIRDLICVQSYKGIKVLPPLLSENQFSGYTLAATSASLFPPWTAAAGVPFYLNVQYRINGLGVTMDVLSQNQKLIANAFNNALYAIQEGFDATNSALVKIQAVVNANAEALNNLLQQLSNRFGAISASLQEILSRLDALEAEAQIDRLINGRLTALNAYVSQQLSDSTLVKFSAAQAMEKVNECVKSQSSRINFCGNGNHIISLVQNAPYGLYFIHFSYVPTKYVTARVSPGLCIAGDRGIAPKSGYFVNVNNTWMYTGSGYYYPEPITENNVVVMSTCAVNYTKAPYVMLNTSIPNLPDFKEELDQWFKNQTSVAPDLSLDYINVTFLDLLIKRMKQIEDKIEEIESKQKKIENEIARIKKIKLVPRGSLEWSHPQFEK
Kind of test: ELISA, coated spike ectodomain.

The target of test [4] is T1, SARS-CoV-2 spike, Delta variant …. Put plainly: cell-based or functional assay. The source holds these as a separate data set.

This is an account of results in patent publication US20240336672A1 (INSTITUT PASTEUR, published 2024).

“And” between values parts separate entries of the source, which are not always exact repeats. Equal values may be shown once.

B1: Cv2.3194 (recombinant human IgG1) (antibody, V domains shown)
VH: EVQLVESGGGLIQPGGSLRLSCAASGITVTSNYMSWVRQAPGKGLEWVSVIYPGGSTFYADSVKGRFTISRDNSKNTLYLQMNSLRAEDTAVYYCARDLVVYGMDVWGQGTTVTVSS
VL: EIVLTQSPGTLSLSPGERATLSCRASQSVSSSYLAWYQQKPGQAPRLLIYGASSRATGIPGRFSGSGSGTDFTLTISRLEPEDFAIYYCQQGVTFGGGTKVEIKR
Turning to B1, the “S-Fuse IC50” value in test [1] stood at 0.0242 µg/mL. Further, the “IC50, S-Fuse neutralisation” value in test [2] was found to be 0.0074 µg/mL.

B2: Cv2.3235 (recombinant human IgG1) (antibody, V domains shown)
VH: EVQLVESGGGLIQPGGSLRLSCAASGFTVSRNYMSWVRQAPGKGLEWVSVIYSGGSTFYADSVKGRFTISRDNSKNTLYLQMNSLRAEDTAVYYCARDGDYYGMDVWGQGTTVTVSS
VL: DIQMTQSPSFLSASVGDRVTITCRASQGISSFLAWYQQKPGKAPKLLIYGASTLQSGVTSRFSGSGSGTEFTLTISSLQPEDFATYYCQRLDSYPPITFGQGTRLEIKR
On to B2, for which, in test [3], the binding result was “no binding”.

B3: Cv2.1169 (recombinant human IgG1) (antibody)
heavy: QVQLVQSGPEVKKPGTSVKVSCKASGFTFTTSAVQWVRQARGQRLEWIGWIVVGSGNTNYAQKFQERVTITRDMSTTTAYMELSSLRSEDTAVYYCAAPYCSGGTCLDGFDIWGQGTMVTVSSASTKGPSVFPLAPSSKSTSGGTAALGCLVKDYFPEPVTVSWNSGALTSGVHTFPAVLQSSGLYSLSSVVTVPSSSLGTQTYICNVNHKPSNTKVDKKVEPKSCDKTHTCPPCPAPELLGGPSVFLFPPKPKDTLMISRTPEVTCVVVDVSHEDPEVKFNWYVDGVEVHNAKTKPREEQYNSTYRVVSVLTVLHQDWLNGKEYKCKVSNKALPAPIEKTISKAKQPREPQVYTLPPSRDELTKNQVSLTCLVKGFYPSDIAVEWESNGQPENNYKTTPPVLDSDGSFFLYSKLTVDKSRWQQGNVFSCSVMHEALHNHYTQKSLSLSPGK
light: not shown
notes: also called Cv2.1169 IgG
As for B3, the “S-Fuse IC50” value in test [4] was found to be 0.00446 µg/mL. Further, in test [1], the “S-Fuse IC50” value was 0.253 µg/mL and 0.212 µg/mL; the “neutralization IC50” value is around 0.25 µg/mL. Also, the binding result in test [3] is recorded as “no binding”. For the same molecule, in test [2], the “IC50, S-Fuse neutralisation” value was 0.0025 µg/mL.
